Measured values as given in publication PMC3001329 (Investigative ophthalmology & visual science, 2009).

Biological target: the molecule itself
Assay: SEC-MALS

B1: recombinant bovine αA-crystallin Y118D mutant (natural protein)
chain: MDIAIQHPWFKRTLGPFYPSRLFDQFFGEGLFEYDLLPFLSSTISPYYRQSLFRTVLDSGISEVRSDRDKFVIFLDVKHFSPEDLTVKVQEDFVEIHGKHNERQDDHGYISREFHRRDRLPSNVDQSALSCSLSADGMLTFSGPKIPSGVDAGHSERAIPVSREEKPSSAPSS
B1 was tested, and the “stoichiometry N” value was 75 subunits.
